Test results published in PMC8017925, “Structural basis for differential recognition of phosphohistidine-containing peptides by 1-pHis and 3-pHis monoclonal antibodies” (Proceedings of the National Academy of Sciences of the …, 2021).

Test system: SCS pHis peptide
Experiment: BLI of pHis Fabs with phosphorylated SCS peptide
Format: binding
Settings: GpHAGAI motif
Procedure: Next, we turned to further analyze the peptide selectivity using BLI experiments. Nine amino acid peptide sequences from proteins known to undergo histidine phosphorylation were selected and synthesized (SI Appendix, Table S2). The biotinylated peptides ACLY, NM23, SCS, and Common-His were chemically phosphorylated using phosphoramidate (8 h at 23 °C), and affinity-purified using immobilized 1-pHis IgGs or 3-pHis IgGs, as described above. BLI signal intensity was used to assess peptide binding to the Fabs. […]
The binding kinetics of pHis Fabs with the peptides (pTza and pHis) were evaluated with an Octet RED96e (FortéBio). […] The biotinylated pTza peptides or pHis peptides (20 nM) with and without phosphoramidate treatment were coated onto these streptavidin biosensors and analyzed for their binding to varying concentrations of the pHis Fabs with an association time of 120 s and dissociation time of 200 s. […] The data were analyzed using the Octet software (FortéBio) and the rates of association and dissociation were obtained by global fitting data to the 1:1 Langmuir interaction model. […]
1H NMR of ACLYana peptide. A mixture of 5 mM ACLYana peptide and 250 mM phosphoramidate in 20 mM d18-Hepes, pH 8.0, 50 mM NaCl in D2O was incubated at 23 °C and monitored over the course of 29 h. […]

B1: SC44-8: Fab of rabbit 3-pHis-specific monoclonal antibody with proclivity for GpHAGA motif (antibody, V domains shown)
VH: QSVKESGRGLVQPGGSLTLTCTASGFSIDSYGFSWVRQAPGKGLEHIGYLTAGGRAFYASWAKSRSTITRNTNENTVTLKMTSLTAADTATYFCAKLGSGNPVAIWGPGTLVTVSS
VL: QVLTQTPSFTSAAVGGTVTINCQSSQSVWRNKNLAWYQQKPGQPPKRLIYAIATLDSGVPSRFSGSGSGTQFTLTISDVQCDDAATYYCVGHYGSENDAYYAFGGGTEVVVK
For B1, the “BLI signal with SCS peptide” value was 0.5 nm.
